Values quoted from earlier work as cited in article PMC6518430.

What was measured:
IL-12Rβ1 (Homo sapiens) = IL-12Rβ1 (Homo sapiens) (UniProt P42701)
IL-23R (Homo sapiens) = IL-23R (Homo sapiens) (UniProt Q5VWK5)
Sequence of IL-23R (Homo sapiens) (Q5VWK5 24-355): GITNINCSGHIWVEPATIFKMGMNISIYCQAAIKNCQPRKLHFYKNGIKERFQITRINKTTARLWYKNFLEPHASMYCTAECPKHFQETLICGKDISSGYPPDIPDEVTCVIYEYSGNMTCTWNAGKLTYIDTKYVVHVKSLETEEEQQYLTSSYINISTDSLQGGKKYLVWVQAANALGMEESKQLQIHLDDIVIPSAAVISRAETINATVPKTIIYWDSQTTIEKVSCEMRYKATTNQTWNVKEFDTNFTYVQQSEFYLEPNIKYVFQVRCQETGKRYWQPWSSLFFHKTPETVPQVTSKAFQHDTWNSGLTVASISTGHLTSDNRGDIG

Sequence of IL-23 (Q9NPF7 20-189): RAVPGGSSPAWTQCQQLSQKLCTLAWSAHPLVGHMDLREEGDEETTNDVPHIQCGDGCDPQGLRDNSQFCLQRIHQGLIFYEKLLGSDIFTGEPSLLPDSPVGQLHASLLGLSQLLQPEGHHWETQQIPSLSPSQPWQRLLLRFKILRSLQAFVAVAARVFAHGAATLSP
Sequence of IL-23 (P29460 23-328, further chain): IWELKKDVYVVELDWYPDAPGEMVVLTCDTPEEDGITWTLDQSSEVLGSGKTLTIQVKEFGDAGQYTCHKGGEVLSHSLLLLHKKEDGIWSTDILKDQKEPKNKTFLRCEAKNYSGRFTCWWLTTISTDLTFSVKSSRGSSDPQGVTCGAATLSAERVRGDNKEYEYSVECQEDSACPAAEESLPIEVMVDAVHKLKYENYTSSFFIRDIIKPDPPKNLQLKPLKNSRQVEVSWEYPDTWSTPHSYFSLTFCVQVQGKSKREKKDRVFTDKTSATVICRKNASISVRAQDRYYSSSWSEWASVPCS

IL-23 (from UniProt Q9NPF7)
Kd (IL-12Rβ1 (Homo sapiens)): 2 µM
Kd (IL-23R (Homo sapiens)): 0.044 µM
